Data set [1] addresses T1, RTEL1 CT-L (entire C-terminal region) (Homo sapiens) (UniProt Q9NZ71).
T1 sequence (Q9NZ71 whole entry, looked up): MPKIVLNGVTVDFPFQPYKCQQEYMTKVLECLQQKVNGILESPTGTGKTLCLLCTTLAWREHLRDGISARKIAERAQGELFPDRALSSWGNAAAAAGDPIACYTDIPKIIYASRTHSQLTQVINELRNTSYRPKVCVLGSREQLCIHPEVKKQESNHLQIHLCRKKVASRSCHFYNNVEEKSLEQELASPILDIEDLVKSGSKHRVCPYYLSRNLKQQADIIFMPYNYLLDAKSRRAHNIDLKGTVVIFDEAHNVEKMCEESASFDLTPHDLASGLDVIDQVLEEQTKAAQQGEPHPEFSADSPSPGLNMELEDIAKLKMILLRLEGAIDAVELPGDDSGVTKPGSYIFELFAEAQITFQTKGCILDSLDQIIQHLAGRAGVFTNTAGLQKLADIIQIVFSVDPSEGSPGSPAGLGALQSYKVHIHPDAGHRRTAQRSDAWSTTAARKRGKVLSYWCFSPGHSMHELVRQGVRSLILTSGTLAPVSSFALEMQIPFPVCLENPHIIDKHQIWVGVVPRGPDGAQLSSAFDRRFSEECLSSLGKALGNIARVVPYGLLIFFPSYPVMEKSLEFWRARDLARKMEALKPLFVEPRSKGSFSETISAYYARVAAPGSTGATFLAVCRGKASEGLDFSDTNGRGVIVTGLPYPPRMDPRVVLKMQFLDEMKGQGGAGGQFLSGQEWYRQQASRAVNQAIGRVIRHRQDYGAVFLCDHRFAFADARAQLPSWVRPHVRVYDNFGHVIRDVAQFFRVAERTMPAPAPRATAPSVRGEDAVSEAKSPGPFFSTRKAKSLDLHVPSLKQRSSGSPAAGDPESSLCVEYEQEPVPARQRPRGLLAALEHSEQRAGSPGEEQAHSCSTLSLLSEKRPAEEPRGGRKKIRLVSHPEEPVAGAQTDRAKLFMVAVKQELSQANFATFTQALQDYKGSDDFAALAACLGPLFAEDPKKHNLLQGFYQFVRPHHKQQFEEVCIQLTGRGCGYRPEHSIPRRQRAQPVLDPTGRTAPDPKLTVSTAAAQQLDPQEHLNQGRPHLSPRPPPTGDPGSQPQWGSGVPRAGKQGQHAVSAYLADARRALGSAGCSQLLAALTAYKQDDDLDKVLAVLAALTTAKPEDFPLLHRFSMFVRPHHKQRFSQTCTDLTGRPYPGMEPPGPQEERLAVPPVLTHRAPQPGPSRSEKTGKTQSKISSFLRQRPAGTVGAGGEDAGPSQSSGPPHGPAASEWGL
The data set is described as follows: EMSA. The following applies: 0.5 mM Mg2+, 20 mM Tris pH 7.5, 50 mM KCl, 0.5 mM MgCl2, 10% glycerol, 0.1% Igepal, 10 nM substrate, EMSA at room temperature 15 min (0-160 nM protein), FA at 25 C ….

Data set [2] deals with T2, RTEL1 HHD1-2 (Homo sapiens) (UniProt Q9NZ71).
T2 sequence: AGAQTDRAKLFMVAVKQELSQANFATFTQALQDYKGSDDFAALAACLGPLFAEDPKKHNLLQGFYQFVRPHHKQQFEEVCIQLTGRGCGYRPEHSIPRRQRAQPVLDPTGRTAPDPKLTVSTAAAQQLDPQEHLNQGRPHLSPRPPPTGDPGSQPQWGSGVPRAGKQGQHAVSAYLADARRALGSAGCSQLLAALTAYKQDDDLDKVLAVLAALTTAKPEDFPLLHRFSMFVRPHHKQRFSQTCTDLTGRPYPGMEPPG
The data set is described as follows: fluorescence anisotropy. The following applies: 0.5 mM Mg2+; 20 mM Tris pH 7.5, 50 mM KCl, 0.5 mM MgCl2, 10% glycerol, 0.1% Igepal, 10 nM substrate; EMSA at room temperature 15 min (0-160 nM protein), FA at 25 C ….

Data set [3] concerns the target T3, human PCNA (Proliferating Cell Nuclear Antigen) (human, UniProt P12004 1-261, uniformly 2H,13C,15N labelled (for NMR experiments)).
T3 construct: 3-residue N-terminal extension left after HRV 3C cleavage, preceding the native initial methionine; human PCNA, UniProt P12004, from the native initial methionine; The methods describe only the isotopically labelled PCNA made for NMR; not shown: His6, N-terminal, cleaved
Kind of data set: ITC; 16.8 uM PCNA in the cell, 282 uM PIP1 peptide in the syringe; 35 °C; PBS pH 7.0, 1 mM TCEP; fitted to a 1:1 binding model (one set of identical sites). The following applies: both partners purified.

The target in data set [4] is T4, RTEL1 HHD2 (Homo sapiens, UniProt Q9NZ71 1053-1147).
T4 sequence: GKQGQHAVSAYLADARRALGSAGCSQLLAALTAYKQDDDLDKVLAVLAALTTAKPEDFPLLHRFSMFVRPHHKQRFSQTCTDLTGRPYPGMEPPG
The data set is described as follows: fluorescence anisotropy; 0.5 mM Mg2+; 20 mM Tris pH 7.5, 50 mM KCl, 0.5 mM MgCl2, 10% glycerol, 0.1% Igepal, 10 nM substrate; EMSA at room temperature 15 min (0-160 nM protein), FA at 25 C (0-2500 nM protein); Hill-slope fit. The following applies: protein: recombinant, tags: N-terminal 6His-Trx removed by TEV.

T3 sequence (P12004 other isoform, or with tags, fused parts or gaps): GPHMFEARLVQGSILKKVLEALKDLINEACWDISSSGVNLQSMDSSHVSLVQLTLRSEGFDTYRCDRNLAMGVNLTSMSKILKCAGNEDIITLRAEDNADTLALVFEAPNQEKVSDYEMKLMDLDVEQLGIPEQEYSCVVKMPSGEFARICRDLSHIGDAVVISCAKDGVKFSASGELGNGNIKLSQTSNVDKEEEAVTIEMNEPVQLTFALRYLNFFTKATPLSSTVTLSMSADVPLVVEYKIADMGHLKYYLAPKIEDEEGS

For the molecule “CTACTACCCCCACCCTCACAACC (double strand) [dsDNA (D1B:D3B)]”, the Kd in data set [1] came to 63 nM.

As for “CTACTACCCCCACCCTCACAACCTTTTTTTTTTTTTTT / TTTTTTTTTTTTTTTGGTTGTGAGGGTGGGGGTAGTAG [DNA fork (D1L:D3L)]”, the results for the Kd in data set [1] and in data set [2] were 43 nM and 155 nM, respectively.

As for “CTACTACCCCCACCCTCACAACCTTTTTTTTTTTTTTT / UUUUUUUUUUUUUUUGGUUGUGAGGGUGGGGGUA [DNA/RNA fork (D1L:R3L)]”, the Kd in data set [1] was determined as 52 nM.

For the molecule “CTACTACCCCCACCCTCACAACCTTTTTTTTTTTTTTT [ssDNA]”, the dissociation constant (Kd) in data set [1] turned out to be 40 nM; in data set [2] it was 247 nM.

In the case of “CUACCCCCACCCUCACAACCUUUUUUUUUUUUUUU / UUUUUUUUUUUUUUUGGUUGUGAGGGUGGGGGUA [RNA fork (R1L:R3L)]”, the Kd amounted to 51 nM in data set [1] and 273 nM in data set [2].

On to “CUACCCCCACCCUCACAACCUUUUUUUUUUUUUUU [ssRNA]”, for which the dissociation constant (Kd) was 46 nM in data set [1] and 192 nM in data set [2].

Take “GTACCCGGGGATCCTCTAGAGTCGACCTGCAGGCATGCAAGCTTGGCACTGGCCGTCGTTTTACAAC / GTTGTAAAACGACGGCCAGTGCCTTTTCCCAGCCTCAATCTCATCACTCTAGAGGATCCCCGGGTAC / GCTTGCATGCCTGCAGGCCAGCCTCAATCTCATC [D-loop (D4:D9:D11)]”: the Kd came to 11 nM in data set [1] and 327 nM in data set [2].

“GTACCCGGGGATCCTCTAGAGTCGACCTGCAGGCATGCAAGCTTGGCACTGGCCGTCGTTTTACAAC / GTTGTAAAACGACGGCCAGTGCCTTTTCCCAGCCTCAATCTCATCACTCTAGAGGATCCCCGGGTAC / GCUUGCAUGCCUGCAGGCCAGCCUCAAUCUCAUCUUUUU [R-loop (R4:D9:D11)]”: the figures for the dissociation constant (Kd) in data set [1] and in data set [2] were 10 nM and 160 nM, respectively.

The molecule “GTACCCGGGGATCCTCTAGAGTCGACCTGCAGGCATGCAAGCTTGGCACTGGCCGTCGTTTTACAAC / GTTGTAAAACGACGGCCAGTGCCTTTTCCCAGCCTCAATCTCATCACTCTAGAGGATCCCCGGGTAC [Bubble (D9:D11)]” gave a Kd in data set [1] of 27 nM.

In data set [1] (K+), “TGAGGGTGGGTAGGGTGGGTAA [1XAV c-Myc promoter G4]” had a Kd of 57 nM.

“TTAGGGTTAGGGTTAGGGTTAGGGTT [2JPZ telomeric G4]” yielded a Kd in data set [1] (K+) of 26 nM.

As for UUAGGGUUAGGGUUAGGGUUAGGG [TERRA G4], the Kd in data set [1] (K+) is 10 nM; in data set [2], 38 nM.

Molecule QSKISSFL [RTEL1 PIP1 peptide (canonical PIP-box of human RTEL1)] yielded a Kd in data set [3] of 53300 ± 7200 nM.

Regarding UUAGGGUUAGGGUUAGGGUUAGGG (structured_RNA) [TERRA G4], the Kd in data set [4] (label: 5' 6-FAM, G4) amounted to 489 ± 124 nM.

B1: RNA fork (R1L:R3L) (dsRNA)
RNA 1: CUACCCCCACCCUCACAACCUUUUUUUUUUUUUUU
RNA 2: UUUUUUUUUUUUUUUGGUUGUGAGGGUGGGGGUA
Turning to B1, in data set [4] (label: 5' 6-FAM on strand 1, fork with U15 arms (3' on strand 1, 5' on strand 2), end as printed not fully blunt), the equilibrium dissociation constant (Kd) was 512 ± 104 nM.

B2: DNA fork (D1L:D3L) (dsDNA)
DNA 1: CTACTACCCCCACCCTCACAACCTTTTTTTTTTTTTTT
DNA 2: TTTTTTTTTTTTTTTGGTTGTGAGGGTGGGGGTAGTAG
For B2, in data set [4] (label: 5' 6-FAM on strand 1, fork: 23 bp duplex, T15 arms (3' on strand 1, 5' on strand 2)), the equilibrium dissociation constant (Kd) was 254 ± 52 nM.
